A word on the Kd: it is the free concentration of one partner at which half of the binding sites on the other are occupied at equilibrium, for simple one-to-one binding. A lower Kd goes with tighter binding. Broadly, the Km is the substrate concentration at which the rate is half of its maximum.

The target in data set [1] is T1, bacterially expressed MO25α (human, UniProt Q9Y376 1-341).
T1 construct: Expressed as GST fusion from pGEX-6T in E. coli BL21; GST tag cleaved off; also called MO25α protein (E. coli)
T1 sequence: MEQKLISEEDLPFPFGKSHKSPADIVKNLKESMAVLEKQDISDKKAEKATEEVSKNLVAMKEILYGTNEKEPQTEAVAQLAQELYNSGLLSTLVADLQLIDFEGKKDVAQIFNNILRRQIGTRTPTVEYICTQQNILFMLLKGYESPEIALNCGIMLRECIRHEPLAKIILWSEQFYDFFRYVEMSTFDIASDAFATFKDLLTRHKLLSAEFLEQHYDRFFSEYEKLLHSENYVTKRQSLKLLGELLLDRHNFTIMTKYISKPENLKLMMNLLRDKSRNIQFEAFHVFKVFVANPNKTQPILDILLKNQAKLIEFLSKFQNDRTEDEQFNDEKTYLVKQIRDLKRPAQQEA
Kind of data set: SPR (BiaCore 3000), biotinylated STRADα-C12 peptide on streptavidin chip, MO25α 6.25-3200 nM, steady-state fit. The protocol:
5 μg of the total cell lysates prior to affinity purification were also subjected to immunoblotting with anti-Myc antibody to ensure that Myc-MO25α was expressed at similar levels in each condition (lower panel). (B) 0.5 mg of the indicated cell lysates was incubated with 5 μg of an N-terminal biotinylated peptide encompassing either the C-terminal 12 residues STRADα conjugated to streptavidin-Sepharose ([…], termed STRADα-C12) or mutants of this peptide in which the indicated residues were individually mutated to Ala. Following isolation and washing of the beads, the samples were subjected to SDS-polyacrylamide gel electrophoresis and immunoblotted with an anti-MO25α antibody. (C) Binding of bacterially expressed MO25α to the indicated peptides was analysed by surface plasmon resonance BiaCore analysis as described in Materials and Methods. […] WEF-C12 corresponds to […], WEA-C12 corresponds to […], AEF-C12 corresponds to […], WAF-C12 corresponds to […], WEF-C6 corresponds to VDDWEF.
Biacore analysis. Binding was analysed in a BiaCore 3000 system (BiaCore AB, Stevenage, UK). The indicated biotinylated peptides were bound to a streptavidin-coated Sensor chip (SA) (20 response units, RU). […] Dissociation of MO25α from each peptide was monitored over a 1 min period. […]

Substrate in data set [2]: CC(C)C[C@H](NC(=O)[C@H](CC(N)=O)NC(=O)[C@H](CO)NC(=O)[C@@H](N)CC(C)C)C(=O)N[C@@H](Cc1ccc(O)cc1)C(=O)N[C@@H](Cc1c[nH]cn1)C(=O)N[C@@H](CCC(N)=O)C(=O)NCC(=O)N[C@@H](CCCCN)C(=O)N[C@@H](Cc1ccccc1)C(=O)N[C@@H](CC(C)C)C(=O)N[C@@H](CCC(N)=O)C(=O)N[C@H](C(=O)N[C@@H](Cc1ccccc1)C(=O)N[C@@H](CS)C(=O)NCC(=O)N[C@@H](CO)C(=O)N1CCC[C@H]1C(=O)N[C@@H](CC(C)C)C(=O)N[C@@H](Cc1ccc(O)cc1)C(=O)N[C@@H](CCCNC(=N)N)C(=O)N[C@@H](CCCNC(=N)N)C(=O)N[C@@H](CCCNC(=N)N)C(=O)O)[C@@H](C)O
The experiment in a line: Kinetic analysis of phosphorylation of T-loop peptides by the LKB1:STRAD:MO25 complex (Example 4). The conditions noted are these: other: phosphorylation by LKB1 complex, nonlinear regression; pH 7.5; 30.0 °C. It counts as biochemical. As to the method:
FIG. 26. Identification of peptide substrates for LKB1. (A) Kinetic analysis of the phosphorylation of the indicated T-loop by the LKB1:STRAD:MO25 complex was performed. The T-loop Thr residue in each peptide is underlined and in boldface type and 3 Arg residues were added to the C-terminus of each T-loop peptide to enable their capture on phosphocellulose p81 paper. Km and Vmax values were determined from nonlinear regression. (B) An aliquot of each peptide phosphorylated by LKB1 complex was subjected to solid phase Edman sequencing and ^32P-radioactivity was measured after each cycle of Edman degradation. […] The results are expressed as the peptide kinase activity generated per mg of LKB1:STRAD:MO25 added to the assay. […]
Measurement of activation of AMPK-related kinases AMPKα1 catalytic subunit and AMPK-related kinases was measured following their phosphorylation with LKB1 as follows. […] After incubation at 30° C. for the times indicated in the figure legend, AMPKα1 catalytic domain or AMPK-related kinase activities were determined by adding 30 μl of 5 mM magnesium acetate, 0.1 mM [γ-^32P]-ATP (300 cpm/pmol) and 200 μM AMARA peptide (AMARAASAAALARRR (Dale et al., 1995)) as substrate. […] Kinetic data was analysed according to the Michaelis-Menten relationship by non-linear regression using the computer program GraphPad Prism (GraphPad Software Inc, San Diego, USA). […]

Data set [3] concerns T2, MARK3 FSNEFTVGGKLDTFCGSPPYRRR
T2 sequence: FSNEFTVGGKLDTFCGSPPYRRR

Data set [4] concerns T3, SIK FGNFYKSGEPLSTWCGSPPYRRR
T3 sequence: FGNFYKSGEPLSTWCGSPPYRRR

In data set [5] the test system is T4, BRSK2 MASLQVGDSLLETSCGSPHYRRR
T4 sequence: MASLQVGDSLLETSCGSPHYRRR

The subject of data set [6] is T5, LKBtide peptide (NUAK2 T-loop peptide).
T5 sequence: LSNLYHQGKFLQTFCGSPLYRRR

The test system of data set [7] is peptide derived from the T-loop of AMPKα1 (Example 4, FIG. 26A).
Data set [8] concerns T6, MELK AKPKGNKDYHLQTCCGSLAYRRR
T6 sequence: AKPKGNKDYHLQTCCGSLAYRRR

For data set [9], the system named is T2, MARK3 FSNEFTVGGKLDTFCGSPPYRRR
The experiment in a line: kinetic analysis of peptide phosphorylation by the LKB1:STRAD:MO25 complex, nonlinear regression.

In data set [10] the test system is T3, SIK FGNFYKSGEPLSTWCGSPPYRRR
Described as above.

Data set [11] concerns T4, BRSK2 MASLQVGDSLLETSCGSPHYRRR
Described as above.

Data set [12] concerns T6, MELK AKPKGNKDYHLQTCCGSLAYRRR
Described as above.

Where no end group is shown, it is not given here. The star is where a group is joined. C6spacer = spacer between biotin and the peptide; Biotin = O=C1N[C@H]2[C@H](CS[C@H]2CCCCC(=O)*)N1

B1: STRADα-C12 peptide (Biotin-C6spacer-NLEELEVDDWEF) (peptide)
peptide: {Biotin-C6spacer}-NLEELEVDDWEF
notes: also called WEF-C12; C-terminal 12 residues of STRADα
Regarding B1, the affinity in [1], expressed as Kd, was 850 nM.

B2: LKB1:STRAD:MO25 complex (Mus musculus) (protein)
chain: MDVADPEPLGLFSEGELMSVGMDTFIHRIDSTEVIYQPRRKRAKLIGKYLMGDLLGEGSYGKVKEVLDSETLCRRAVKILKKKKLRRIPNGEANVKKEIQLLRRLRHRNVIQLVDVLYNEEKQKMYMVMEYCVCGMQEMLDSVPEKRFPVCQAHGYFRQLIDGLEYLHSQGIVHKDIKPGNLLLTTNGTLKISDLGVAEALHPFAVDDTCRTSQGSPAFQPPEIANGLDTFSGFKVDIWSAGVTLYNITTGLYPFEGDNIYKLFENIGRGDFTIPCDCGPPLSDLLRGMLEYEPAKRFSIRQIRQHSWFRKKHPLAEALVPIPPSPDTKDRWRSMTVVPYLEDLHGRAEEEEEEDLFDIEDGIIYTQDFTVPGQVLEEEVGQNGQSHSLPKAVCVNGTEPQLSSKVKPEGRPGTANPARKVCSSNKIRRLSAC
notes: Constructs expressing the full length wild type and kinase dead mouse LKB1 have been described previously; made in house; host or cells: 293 cells, co-transfected
As to B2, in [2], the Km was 150 µM.

B3: LKB1:STRAD:MO25 complex (Example 4, FIG. 26A) (enzyme, part only; not given: STRAD and MO25 subunits, GST)
chain: MDVADPEPLGLFSEGELMSVGMDTFIHRIDSTEVIYQPRRKRAKLIGKYLMGDLLGEGSYGKVKEVLDSETLCRRAVKILKKKKLRRIPNGEANVKKEIQLLRRLRHRNVIQLVDVLYNEEKQKMYMVMEYCVCGMQEMLDSVPEKRFPVCQAHGYFRQLIDGLEYLHSQGIVHKDIKPGNLLLTTNGTLKISDLGVAEALHPFAVDDTCRTSQGSPAFQPPEIANGLDTFSGFKVDIWSAGVTLYNITTGLYPFEGDNIYKLFENIGRGDFTIPCDCGPPLSDLLRGMLEYEPAKRFSIRQIRQHSWFRKKHPLAEALVPIPPSPDTKDRWRSMTVVPYLEDLHGRAEEEEEEDLFDIEDGIIYTQDFTVPGQVLEEEVGQNGQSHSLPKAVCVNGTEPQLSSKVKPEGRPGTANPARKVCSSNKIRRLSACKQQ
Regarding B3, in [3], the Vmax of phosphorylation of the MARK3 T-loop peptide by the complex came out at 10.2 U/mg and the Vmax/Km for the MARK3 T-loop peptide (Vmax in U/mg, Km in mM) was found to be 16. In data set [4], the Vmax of phosphorylation of the SIK T-loop peptide by the complex stood at 63.9 U/mg and the Vmax/Km for the SIK T-loop peptide (Vmax in U/mg, Km in mM) stood at 139. Further, in [5], the Vmax of phosphorylation of the BRSK2 T-loop peptide by the complex was 10.6 U/mg and the Vmax/Km for the BRSK2 T-loop peptide (Vmax in U/mg, Km in mM) came out at 26. Moreover, in [6], the Vmax of phosphorylation of the NUAK2 T-loop peptide by the complex turned out to be 86.8 U/mg and the Vmax/Km for the NUAK2 T-loop peptide (Vmax in U/mg, Km in mM) is 578. In addition, in data set [7], the “Km (phosphorylation of the T-loop peptide)” value was “(Km, 1.4 mM)”; the Vmax of phosphorylation of the AMPK T-loop peptide by the complex was 94.1 U/mg; the Vmax/Km for the AMPK T-loop peptide (Vmax in U/mg, Km in mM) turned out to be 67. Besides, the Vmax of phosphorylation of the MELK T-loop peptide by the complex in data set [8] is above 60 U/mg. Further, the Km in data set [9] stood at 620 µM. Moreover, the Km in [10] turned out to be 460 µM. Moreover, the Km in data set [11] came to 400 µM. Moreover, in data set [12], the Michaelis constant (Km) is above 3000 µM.

For the origin of these results see patent US20070036793A1, “Methods for use of an lkb1/strad7mo25 complex” (priority 2003, published 2007).
